We go through eight molecules from publication PMC1474052.

The target of data set [1] is BPV-1 E1 helicase domain F464A (bovine papillomavirus type 1 (BPV-1)). The experiment in a line: SEC. For orientation: SEC sorts molecules by how far they enter the pores of the column.
The target in data set [2] is BPV-1 E1 helicase domain F464W (bovine papillomavirus type 1 (BPV-1)). In words: SEC.
Data set [3] has as its target BPV-1 E1 helicase domain H507A (bovine papillomavirus type 1 (BPV-1)). The experiment in a line: SEC.
The target in data set [4] is BPV-1 E1 helicase domain K506A (bovine papillomavirus type 1 (BPV-1)). The experiment in a line: SEC.
Data set [5] addresses BPV-1 E1 helicase domain R505E (bovine papillomavirus type 1 (BPV-1)). The experiment in a line: SEC.
Data set [6] has as its target BPV-1 E1 helicase domain W465F (bovine papillomavirus type 1 (BPV-1)). In words: SEC.
The target of data set [7] is BPV-1 E1 helicase domain, wild type (bovine papillomavirus type 1 (BPV-1)). In words: SEC.
The target of data set [8] is E1HD wild-type (Bovine papillomavirus 1 (BPV-1), UniProt P03116 299-605). In words: EMSA.

Turning to “BPV-1 E1 helicase domain F464A (domain or fragment)”, the stoichiometry N (in general, the number of molecules, sites or subunits per partner or assembly) in data set [1] amounted to 6.

In data set [2], “BPV-1 E1 helicase domain F464W (domain or fragment)” yielded a stoichiometry N of 6.

Molecule “BPV-1 E1 helicase domain H507A (domain or fragment)” showed a stoichiometry N in data set [3] of 6.

Take “BPV-1 E1 helicase domain K506A (domain or fragment)”: in data set [4], the stoichiometry N turned out to be 6.

Turning to “BPV-1 E1 helicase domain R505E (domain or fragment)”, in data set [5], the stoichiometry N worked out at 6.

On to “BPV-1 E1 helicase domain W465F (domain or fragment)”, for which the stoichiometry N in data set [6] was 6.

In the case of “BPV-1 E1 helicase domain, wild type (domain or fragment)”, the stoichiometry N in data set [7] turned out to be 6.

B1: 30mer ssDNA (ssDNA)
DNA: TGCTCTAGAATGCAAACTACTCTGAACGAG
In the case of B1, in data set [8], the binding result is “binds”.
